Source: IntAct's records for PubMed 23236153

B1: Pre-mRNA-splicing factor CWC22 homolog (Homo sapiens), Q9HCG8 (parent)
chain: MKSSVAQIKPSSGHDRRENLNSYQRNSSPEDRYEEQERSPRDRDYFDYSRSDYEHSRRGRSYDSSMESRNRDREKRRERERDTDRKRSRKSPSPGRRNPETSVTQSSSAQDEPATKKKKDELDPLLTRTGGAYIPPAKLRMMQEQITDKNSLAYQRMSWEALKKSINGLINKVNISNISIIIQELLQENIVRGRGLLSRSVLQAQSASPIFTHVYAALVAIINSKFPQIGELILKRLILNFRKGYRRNDKQLCLTASKFVAHLINQNVAHEVLCLEMLTLLLERPTDDSVEVAIGFLKECGLKLTQVSPRGINAIFERLRNILHESEIDKRVQYMIEVMFAVRKDGFKDHPIILEGLDLVEEDDQFTHMLPLEDDYNPEDVLNVFKMDPNFMENEEKYKAIKKEILDEGDTDSNTDQDAGSSEEDEEEEEEEGEEDEEGQKVTIHDKTEINLVSFRRTIYLAIQSSLDFEECAHKLLKMEFPESQTKELCNMILDCCAQQRTYEKFFGLLAGRFCMLKKEYMESFEGIFKEQYDTIHRLETNKLRNVAKMFAHLLYTDSLPWSVLECIKLSEETTTSSSRIFVKIFFQELCEYMGLPKLNARLKDETLQPFFEGLLPRDNPRNTRFAINFFTSIGLGGLTDELREHLKNTPKVIVAQKPDVEQNKSSPSSSSSASSSSESDSSDSDSDSSDSSSESSSEESDSSSISSHSSASANDVRKKGHGKTRSKEVDKLIRNQQTNDRKQKERRQEHGHQETRTERERRSEKHRDQNSSGSNWRDPITKYTSDKDVPSERNNYSRVANDRDQEMHIDLENKHGDPKKKRGERRNSFSENEKHTHRIKDSENFRRKDRSKSKEMNRKHSGSRSDEDRYQNGAERRWEKSSRYSEQSRESKKNQDRRREKSPAKQK

Variants of: B1
Conditions: with if4a3_human EIF4A3, P38919
if4a3_human EIF4A3, P38919, sequence (P38919 whole entry): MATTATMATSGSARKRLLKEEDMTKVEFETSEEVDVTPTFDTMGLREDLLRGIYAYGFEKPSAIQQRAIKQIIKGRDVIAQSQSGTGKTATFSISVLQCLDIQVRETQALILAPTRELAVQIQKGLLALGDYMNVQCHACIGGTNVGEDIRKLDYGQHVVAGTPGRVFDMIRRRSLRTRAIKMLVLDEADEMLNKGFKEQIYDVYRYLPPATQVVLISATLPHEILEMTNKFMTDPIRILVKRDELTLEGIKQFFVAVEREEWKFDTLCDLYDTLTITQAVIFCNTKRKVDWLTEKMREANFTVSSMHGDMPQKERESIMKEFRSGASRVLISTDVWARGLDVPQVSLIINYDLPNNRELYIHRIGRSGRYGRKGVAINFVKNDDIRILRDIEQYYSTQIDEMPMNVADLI

**Q.** For N171A;K172A;N174A, which “effect of a mutation on the interaction” value is on record?
**A.** disrupting interaction strength

**Q.** R331A;Y334A was tested. Which “effect of a mutation on the interaction” value did it give?
**A.** decreasing interaction strength
